# In the supplement of paper PMC10126150:
# ± gives the standard deviation of the averaged measurements.
# System: ATP
# Experiment: switch fluorescence ratio, 500 uM ATP over buffer (Cy3 cluster intensity, sum of 5 cycles each) (fold (ratio)); higher = stronger signal-on switching upon ATP binding; sequences stand for … in TCGTCGGCAGCGTCAGATGTGTATAAGAGACAGTTTTTTTTTTTTTTTTTTTTTTTTT…TC
# Details: aptamer strand: ATP DNA aptamer (quencher-CACCTGGGGGAGTATTGCGGAGGAAGG + anchor), 100 nM annealed; ATP concentration: 500 uM
# Summary of the method: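 Clusters carrying Cy3-labelled switching strands on a modified Illumina MiSeq flow-cell were annealed to 100 nM quencher-labelled ATP aptamer and imaged in selection buffer. They were imaged again after 15 min with 500 uM ATP at 22 °C, over five buffer/ATP cycles with NaOH stripping and re-annealing in between. For each cluster, the fluorescence ratio is the summed Cy3 intensity of the target cycles divided by that of the buffer cycles, averaged per switch-domain sequence. Clusters outside 100-1000 RFU were left out.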
# 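Also: ATP exposure 15 min at 22 °C before imaging.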
row,Sequence,switch fluorescence ratio
1,AGTCCGTCGT,1.026 ± 0.0068
2,CTCAGTTTTA,1.002 ± 0.0083
3,TTCAGGCTTT,1.01 ± 0.011
4,TTCTTAGAGT,1.02 ± 0.016
5,TATGTTTATT,1.03 ± 0.011
6,ATGAATTTGG,0.973 ± 0.025
7,AAATACGAGA,1.06 ± 0.024
8,TACTGTGGGT,0.9726 ± 0.0035
9,GGGGTTGTCG,0.989 ± 0.1
10,TGGGGTTCGA,0.975 ± 0.024
11,ACGTTTGTTT,0.971 ± 0.049
12,GGGGTAACGG,0.987 ± 0.036
13,AATTTTGCGG,1.01 ± 0.038
14,TCCTTGATCC,1.02 ± 0.089
15,GGTCTGCGCG,1.02 ± 0.037
16,GGTCCAGGTC,1.12 ± 0.057
17,TAGAAAGTGC,1.02 ± 0.099
18,TAAATTTATT,1.01 ± 0.017
19,TATATTTTTC,1.15 ± 0.24
20,TCAATCCTTG,0.999 ± 0.035
21,TGTGATAGTT,0.999 ± 0.015
22,TTCAGGAGGG,0.991 ± 0.042
23,AGGCTGGAGG,1.01 ± 0.038

row,Sequence,switch fluorescence ratio
1,ATTTAGGCTG,1.062 ± 0.0089
2,CGTGTATGG,1.016 ± 0.0031
3,TAAAAATGCG,0.951 ± 0.065
4,TTAACCGGGA,1.02 ± 0.059
5,TTGTGTATGC,0.958 ± 0.1
6,TAGGGAAAAG,0.99 ± 0.013
7,GAGCTAAGTT,0.992 ± 0.012
8,TTTCTGGTAA,1.08 ± 0.034
9,TGATTTTAAG,0.999 ± 0.018
10,TTTCAAAAAC,1.03 ± 0.037
11,TTAAAAGCTT,1.05 ± 0.024
12,GGATCCTTTC,1.23 ± 0.083
13,CCTGGCATGC,2.56 ± 0.24
14,TTACCACAGC,1.05 ± 0.041
15,TAAGTCCCGG,0.984 ± 0.05
16,TGACGGGGGG,1.06 ± 0.12
17,GGTTTTTGTT,0.991 ± 0.039
18,TTTGTTTTCG,1.02 ± 0.041
19,ATGAAGAGAG,0.9897 ± 0.0069
20,GTGGGGGTAG,0.99 ± 0.032
21,CGGGACAGTG,0.957 ± 0.024
22,GCAGCGGACT,1.29 ± 0.042
23,TTGGATTTCA,0.972 ± 0.045

row,Sequence,switch fluorescence ratio
1,GATAACATAC,1.368 ± 0.0047
2,GTTAGAGAGC,1.06 ± 0.0068
3,GTTATTATGC,0.952 ± 0.035
4,TTTGGTTGCT,0.991 ± 0.028
5,TTGGAAATGG,1.03 ± 0.045
6,TGTTGGCCGG,0.991 ± 0.026
7,ACCAGGGCAT,1.067 ± 0.0076
8,TTTTACCCGG,1.04 ± 0.029
9,GGTGGGGGTC,1.02 ± 0.022
10,CGGGAGGTGC,1.02 ± 0.033
11,AGATATAATA,1.02 ± 0.035
12,TTGAGTAGGT,0.987 ± 0.031
13,GCGTAAGACC,1.07 ± 0.06
14,TAAGGGGTAC,1 ± 0.013
15,AAGGGCTTAT,0.981 ± 0.019
16,GCTCGCCTGA,0.995 ± 0.025
17,GCGGGGTAGG,1.015 ± 0.0099
18,GATTGAATCC,1.01 ± 0.059
19,AGGATGGGGG,0.997 ± 0.045
20,TCCTTTTAAC,1.25 ± 0.085
21,ATGGGAGGTG,1.01 ± 0.039
22,CGGGTTTTAC,1.01 ± 0.039
23,AGAACGTCTA,1 ± 0.054

row,Sequence,switch fluorescence ratio
1,TTGGTGGTTC,0.99 ± 0.037
2,AAAAAGGGAA,0.986 ± 0.02
3,TGCGTTTCGA,1.03 ± 0.025
4,ACTATGCGGG,0.982 ± 0.017
5,GACGTCAGGG,0.997 ± 0.052
6,CTAAGGATGC,1.03 ± 0.021
7,GTGGGGCGTG,1 ± 0.03
8,GACAGGGGCC,0.987 ± 0.018
9,TAGAGGAGTT,0.951 ± 0.051
10,GATAAGGAAC,0.9788 ± 0.0072
11,AGGTCGGGAG,0.9895 ± 0.0072
12,GGGTCTTCTC,1.01 ± 0.053
13,TTGGATGAGG,0.973 ± 0.048
14,CAATTTTCTG,0.985 ± 0.057
15,TTGGTTTAGG,0.983 ± 0.022
16,ATCGTGTTGA,0.971 ± 0.02
17,ATAAGTAAAG,1.01 ± 0.021
18,ATTTTTCTAG,1.01 ± 0.03
19,GAAACAGGGA,1.06 ± 0.057
20,GCCTCATAGG,0.994 ± 0.019
21,TGTCGTTCTT,0.973 ± 0.013
22,TACCACGTTG,1 ± 0.009
23,CATATTCGGC,0.988 ± 0.061

row,Sequence,switch fluorescence ratio
1,GGATGTTTGG,0.975 ± 0.014
2,GAAGGGGCAA,1.18 ± 0.13
3,TGACCGGAGT,1.03 ± 0.033
4,CAGTGATGGA,1.007 ± 0.0046
5,ATATAATTTT,0.979 ± 0.031
6,TAAAAATTTA,1.01 ± 0.048
7,TTGACGGAGG,0.983 ± 0.032
8,ACGGTCCTTT,0.973 ± 0.038
9,TAGGGGGCAT,1.01 ± 0.043
10,TTTGGGGGTT,1.01 ± 0.039
11,AGTGAGTAAC,0.9811 ± 0.0061
12,TAATCACGTC,1.04 ± 0.048
13,GGGCGGACGT,0.969 ± 0.041
14,TTATCCTGGG,1.01 ± 0.023
15,TTGACTTACT,1.18 ± 0.085
16,ATTACGGCAT,1.18 ± 0.047
17,TAAGTATGGT,1.03 ± 0.046
18,GAAGGATATT,1.018 ± 0.0039
19,ATTGGCATGC,0.996 ± 0.027
20,TCGGTCCTTT,0.99 ± 0.029
21,TTGATAGTAA,1.04 ± 0.09
22,TATGCGTTTT,0.98 ± 0.013
23,TGGGAATGGC,0.9555 ± 0.0094

row,Sequence,switch fluorescence ratio
1,TTTATTCGGC,1.02 ± 0.065
2,TTCTAATGAG,0.998 ± 0.019
3,ATACGAGGTC,1.01 ± 0.03
4,AGGAAAAAAG,1 ± 0.032
5,TAGTGGGATT,0.994 ± 0.016
6,ATGATGGTTA,0.9978 ± 0.0052
7,CGAATTTGCC,1.01 ± 0.065
8,TAACCCGGTT,0.999 ± 0.042
9,AGTACAATGC,1.47 ± 0.18
10,TCCAGTTTTT,0.999 ± 0.015
11,TGAGTTTCTG,0.968 ± 0.014
12,GGCCAATCAG,1.018 ± 0.0024
13,CGGAGAGCTG,1.04 ± 0.014
14,TGGTAACGGT,1.09 ± 0.12
15,CATTAGCTGG,1.03 ± 0.002
16,AAAGGGTTCG,1 ± 0.034
17,ACGTGCCGCA,1.079 ± 0.0088
18,GATAGAAGGT,1.04 ± 0.056
19,CTTCGGAGTG,1.02 ± 0.023
20,ATACGGAGGC,1.03 ± 0.1
21,TGATTTTAGA,0.974 ± 0.052
22,CACTGCGCGC,1.11 ± 0.017
23,TCATTCAACT,1 ± 0.013

row,Sequence,switch fluorescence ratio
1,TGGGGTATGT,1 ± 0.031
2,GATGAACGTT,0.984 ± 0.041
3,CGCTGTGACT,1.02 ± 0.031
4,TTGGTGTCGC,1.016 ± 0.0034
5,TGAATTTTTA,1 ± 0.011
6,GCTTGGGTGC,1.04 ± 0.067
7,ATGCGGGGGT,0.993 ± 0.037
8,AATCGATTTG,0.989 ± 0.032
9,TACTATGTGG,1.013 ± 0.0014
10,GAGAAGTTAG,1.02 ± 0.023
11,TAAAGAGAGC,1.01 ± 0.097
12,GCGTGTGTTC,1.08 ± 0.049
13,TAGGATTGCT,1 ± 0.021
14,TCTCTATGTG,0.966 ± 0.036
15,GAGTTCAGGT,1.01 ± 0.019
16,TAGTTAATCA,0.991 ± 0.01
17,TTCCTTCGAT,1.51 ± 0.062
18,GTTCATAAAG,0.98 ± 0.028
19,AGGCGAGGGA,1.02 ± 0.0049
